Source: publication PMC3749969

Assays:
[1] = biological target: Merkel cell polyomavirus major capsid protein VP1 (native virions, isolate R17b) (Merkel cell polyomavirus (MCV), isolate R17b); experiment: co-sedimentation; purified native virions and high-VP2 pseudovirions; SDS-PAGE, SYPRO Ruby stain, densitometry against BSA standards; apparent ratio
[2] = biological target: Merkel cell polyomavirus major capsid protein VP1 (pseudovirions, codon-modified gene) (Merkel cell polyomavirus (MCV)); experiment: as above

Question: With “Merkel cell polyomavirus minor capsid protein VP2 (native virions, isolate R17b) (natural protein)” as the substance, how does the stoichiometry N (VP2 per 5 VP1) [1] read?
Answer: 2

Question: How did the stoichiometry N (VP2 per 5 VP1) [2] turn out when “Merkel cell polyomavirus minor capsid protein VP2 (pseudovirions, codon-modified gene) (natural protein)” was run?
Answer: 1.4
